Data taken from EP4751739A1 (Jiangsu Hengrui Pharmaceuticals Co., Ltd., dated 2025).
Values belong to the binder of their own block, whether it stands above or below them.

What was measured:
[1] = biological target: T1, human c-Met on tumor cell lines (human, UniProt P08581 25-1390); experiment: cell-based or functional assay
[2] = biological target: T2, Cynomolgus monkey c-Met protein (cynomolgus monkey); experiment: SPR (Biacore 8K), ADC captured on Protein A chip, c-Met protein as analyte, 25 °C, 1:1 Langmuir fit
T2 construct: Soluble analyte in Biacore; also called cyno-c-Met

[3] = biological target: T1, human c-Met on tumor cell lines; experiment: cell-based or functional assay; remark: listed apart in the source
[4] = biological target: T2, Cynomolgus monkey c-Met protein; experiment: SPR (Biacore 8K), antibody captured on Protein A chip, c-Met protein as analyte, 25 °C, 1:1 Langmuir fit

T1 sequence (P08581 25-1390): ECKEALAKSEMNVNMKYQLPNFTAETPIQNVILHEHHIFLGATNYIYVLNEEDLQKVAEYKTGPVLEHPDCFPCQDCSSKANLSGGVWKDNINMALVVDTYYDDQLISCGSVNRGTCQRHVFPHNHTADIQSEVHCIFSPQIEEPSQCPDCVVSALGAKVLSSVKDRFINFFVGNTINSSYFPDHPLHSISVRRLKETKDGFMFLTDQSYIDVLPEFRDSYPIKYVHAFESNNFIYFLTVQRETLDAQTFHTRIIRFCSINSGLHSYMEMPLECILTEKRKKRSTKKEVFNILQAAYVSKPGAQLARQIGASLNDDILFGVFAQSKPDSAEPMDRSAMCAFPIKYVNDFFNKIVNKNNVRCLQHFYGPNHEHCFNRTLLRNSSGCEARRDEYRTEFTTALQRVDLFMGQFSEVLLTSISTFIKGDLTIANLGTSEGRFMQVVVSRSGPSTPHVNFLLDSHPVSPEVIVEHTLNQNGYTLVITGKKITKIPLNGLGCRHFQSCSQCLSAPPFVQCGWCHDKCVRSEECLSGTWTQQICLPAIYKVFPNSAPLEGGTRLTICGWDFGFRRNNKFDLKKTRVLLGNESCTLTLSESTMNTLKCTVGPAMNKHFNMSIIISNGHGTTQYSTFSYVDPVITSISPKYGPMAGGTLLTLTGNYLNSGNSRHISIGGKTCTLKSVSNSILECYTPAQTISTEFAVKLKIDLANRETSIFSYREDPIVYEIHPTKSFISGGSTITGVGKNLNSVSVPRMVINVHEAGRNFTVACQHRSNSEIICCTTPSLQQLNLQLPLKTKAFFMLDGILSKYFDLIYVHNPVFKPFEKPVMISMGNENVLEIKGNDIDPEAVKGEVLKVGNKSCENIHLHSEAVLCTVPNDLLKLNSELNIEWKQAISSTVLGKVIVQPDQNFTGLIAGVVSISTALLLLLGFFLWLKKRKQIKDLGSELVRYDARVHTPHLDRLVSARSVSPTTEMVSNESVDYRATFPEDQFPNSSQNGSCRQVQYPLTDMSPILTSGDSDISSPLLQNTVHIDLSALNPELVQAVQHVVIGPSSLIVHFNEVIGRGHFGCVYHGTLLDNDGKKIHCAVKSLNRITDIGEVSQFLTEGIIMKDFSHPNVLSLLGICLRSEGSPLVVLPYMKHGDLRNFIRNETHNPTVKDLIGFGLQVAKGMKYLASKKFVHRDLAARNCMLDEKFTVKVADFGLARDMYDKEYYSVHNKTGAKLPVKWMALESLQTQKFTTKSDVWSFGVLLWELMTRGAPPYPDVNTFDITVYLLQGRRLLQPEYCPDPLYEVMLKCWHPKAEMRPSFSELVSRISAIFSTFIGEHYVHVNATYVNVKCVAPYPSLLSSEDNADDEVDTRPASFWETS

Endocytosis ratio% at 0 h, EBC-1 cells, 20 nM, flow cytometry [1]: 0%
Endocytosis ratio% at 0.5 h, EBC-1 cells, 20 nM, flow cytometry [1]: 30.2%
Endocytosis ratio% at 2 h, EBC-1 cells, 20 nM, flow cytometry [1]: 61%
Endocytosis ratio% at 4 h, EBC-1 cells, 20 nM, flow cytometry [1]: 80.6%
Endocytosis ratio% at 24 h, EBC-1 cells, 20 nM, flow cytometry [1]: 98.2%
Kd [2]: 48.5 nM
IC50 for the inhibition of proliferation, EBC-1 cells (c-Met expression High), CellTiter Glo, 6 days [3]: 0.065 nM
IC50 for the inhibition of proliferation, HCT116 cells (c-Met expression Low), CellTiter Glo, 6 days [3]: 23.9 nM
IC50 for the inhibition of proliferation, Hs 746T cells (c-Met expression High), CellTiter Glo, 6 days [3]: 0.125 nM
IC50 for the inhibition of proliferation, MKN-45 cells (c-Met expression High), CellTiter Glo, 6 days [3]: 0.055 nM
IC50 for the inhibition of proliferation, NCI-H441 cells (c-Met expression Moderate), CellTiter Glo, 6 days [3]: 0.48 nM
IC50 for the inhibition of proliferation, NCI-H1299 cells (c-Met expression Low), CellTiter Glo, 6 days [3]: > 200 nM
IC50 for the inhibition of proliferation, NCI-H1993 cells (c-Met expression High), CellTiter Glo, 6 days [3]: 0.181 nM
IC50 for the inhibition of proliferation, NCI-N87 cells (c-Met expression Low), CellTiter Glo, 6 days [3]: > 200 nM
IC50 for the inhibition of proliferation, SW480 cells (c-Met expression Low), CellTiter Glo, 6 days [3]: > 200 nM
B1: antibody-drug conjugate-1 (ADC-1) (antibody, human IgG2, kappa, V domains shown)
VH: QVQLVESGGGVVQPGRSLRLSCAASGFSLSNYGVHWVRQAPGKGLEWLAVIWSGGSTNYAAAFVSRLTISKDNSKNTVYLQMNSLRAEDTAVYYCARNHDNPYNYAMDYWGQGTTVTVSS
VL: DIVLTQSPDSLAVSLGERATINCRADKSVSTSTYNYLHWYQQKPGQPPKLLIYLASNLASGVPDRFSGSGSGTDFTLTISSLQAEDVAVYYCQHSRDLPPTFGQGTKLEIKR
modifications: compound 9-A may also be coupled to reduced cysteines of this chain; positions not given; compound 9-A (maleimidocaproyl-GGFG linker with exatecan derivative) coupled to cysteines of the TCEP-reduced antibody; positions not given; target DAR n = 5.3, found n = 4.7-5.9 per antibody

Kd [4]: 47.9 nM
Endocytosis ratio% at 0 h, EBC-1 cells, 20 nM, flow cytometry [1]: 0%
Endocytosis ratio% at 0.5 h, EBC-1 cells, 20 nM, flow cytometry [1]: 24.5%
Endocytosis ratio% at 2 h, EBC-1 cells, 20 nM, flow cytometry [1]: 62.6%
Endocytosis ratio% at 4 h, EBC-1 cells, 20 nM, flow cytometry [1]: 83%
Endocytosis ratio% at 24 h, EBC-1 cells, 20 nM, flow cytometry [1]: 98.4%
IC50 for the inhibition of proliferation, EBC-1 cells (c-Met expression High), CellTiter Glo, 6 days [3]: 0.051 nM
IC50 for the inhibition of proliferation, HCT116 cells (c-Met expression Low), CellTiter Glo, 6 days [3]: > 200 nM
IC50 for the inhibition of proliferation, Hs 746T cells (c-Met expression High), CellTiter Glo, 6 days [3]: 0.134 nM
IC50 for the inhibition of proliferation, MKN-45 cells (c-Met expression High), CellTiter Glo, 6 days [3]: 0.176 nM
IC50 for the inhibition of proliferation, NCI-H441 cells (c-Met expression Moderate), CellTiter Glo, 6 days [3]: > 200 nM
IC50 for the inhibition of proliferation, NCI-H1299 cells (c-Met expression Low), CellTiter Glo, 6 days [3]: > 200 nM
IC50 for the inhibition of proliferation, NCI-H1993 cells (c-Met expression High), CellTiter Glo, 6 days [3]: 0.203 nM
IC50 for the inhibition of proliferation, NCI-N87 cells (c-Met expression Low), CellTiter Glo, 6 days [3]: > 200 nM
IC50 for the inhibition of proliferation, SW480 cells (c-Met expression Low), CellTiter Glo, 6 days [3]: > 200 nM
B2: Ab-10 humanized antibody (antibody, human IgG2, kappa, V domains shown)
VH: B1 VH
VL: B1 VL
notes: Humanized anti-c-Met antibody; Embodiments name human IgG2 and kappa constant regions; also called naked antibody Ab-10; Ab-10 Naked antibody
